B1: COVA2-04 Fab (Fab, V domains shown)
VH: QVQLVETGGGLIQPGGSLRLSCAASGFTVSSNYMSWVRQAPGKGLEWVSVIYSGGSTFYADSVKGRFTISRDNSKNTLYLQMNSLRAEDTAVYYCARDLERAGGMDVWGQGTMVTVSS
VL: not shown
B2: COVA2-39 Fab (Fab, V domains shown)
VH: QVQLVETGGGLIQPGGSLRLSCAASGFTVSSNYMSWVRQAPGKGLEWVSVIYTGGTTYYADSVKGRFTISRDNSKNTLYLQMNSLRAEDTAVYYCARAHVDTAMVESGAFDIWGQGTRVTVSS
VL: QSALTQPASVSGSPGQSITISCTGTSSDVGSYNLVSWYQQHPGKAPKLMIYEVTKRPSGVSNRFSGSKSGNTASLTISGLQAEDEADYYCCSYAGSSTWVFGGGTKLTVL
B3: COVA2-39 with the 53TGGT56 motif reverted to the germline-encoded 53SGGS56 motif (Fab, V domains shown)
VH: QVQLVETGGGLIQPGGSLRLSCAASGFTVSSNYMSWVRQAPGKGLEWVSVIYSGGSTYYADSVKGRFTISRDNSKNTLYLQMNSLRAEDTAVYYCARAHVDTAMVESGAFDIWGQGTRVTVSS
VL: QSALTQPASVSGSPGQSITISCTGTSSDVGSYNLVSWYQQHPGKAPKLMIYEVTKRPSGVSNRFSGSKSGNTASLTISGLQAEDEADYYCCSYAGSSTWVFGGGTKLTVL

Target: SARS-CoV-2 spike (S) protein receptor-binding domain (RBD), residues 319-541 (SARS-CoV-2, Wuhan-Hu-1 (GenBank …, UniProt P0DTC2))
Assay: BLI
Conditions: both partners purified

Binder | Kd [nM] | fold decrease in other [fold]
B1 | 40 | –
B2 | 21 | –
B3 | – | ≥ 50

— paper PMC7522650, “An Alternative Binding Mode of IGHV3-53 Antibodies to the SARS-CoV-2 Receptor Binding Domain” (Cell Reports, 2020)
